Laboratory results published in the nanobody polyreactivity screen of Harvey et al. (2022).

Experiment: yeast display, Sf9 membrane polyspecificity reagent, FACS + sequencing; frameworks hold sequencing errors
Method in brief: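 Polyreactivity labels are assigned by the sorting gate from which each nanobody was recovered. The gates were low and high (top ~1%), set on anti-HA fluorescence for expression and streptavidin fluorescence for reagent binding. Before sorting, galactose-induced (36–48 hours) yeast display cells were stained for 1 hour at 4 °C with 10% biotinylated, detergent-solubilized Sf9 membrane reagent.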

QVQLVESGGGLVQAGGSLRLSCAASGRIFRVYAMGWYRQAPGKERELVAAISSRGGRTYYADSVKGRFTISRDNAKNTVYLQMNSLKPEDTAVYYCAADGRSCSRTTSRYDYWGQGTQVTVSS
polyreactivity (PSR sort gate): high polyreactivity

QVQLVESGGGLVQAGGSLRLSCAASGSIFDVNAMGWYRQAPGKERELVAAISQRGTRTYYADSVKGRFTISRDYAKNTVYLQMNSLTPEDTAVYYCNRGGWRQYDSWGQGTQVTVSS
polyreactivity (PSR sort gate): high polyreactivity

QVQLVESRGGLVQAGGSLRLSCAASGSTFRIKAMGWYRQAPGNERELFAAIRASGTSTYYADSVKGRFTISRDNGQNTVYLLMIRLKPEDTAVDYCAASAQQPVLGLSYYYWGQGTQVTVSS
polyreactivity (PSR sort gate): high polyreactivity

QVQLVESGGGLVQAGGSLRLSCAASGSTFYGYAMGWYRQAPGKERELVAAISSSGTRTYYADSVKGRFTISRDNAKNTVYLQMNSLKPEDTAVYYCATDVRVGHIRDYDYWGQGTQVTVSS
polyreactivity (PSR sort gate): high polyreactivity

QVQLVESGGGLVQAGGSLRLSCAASGRTLRYYAMGWYRQAPGKERELVAAITKSGGSTYYADSVKGRFTISRDNAKNTVYLQMTSLKPEDTAVYYCNKVTYSRAQYIGGDGYYWGQGTQVTVSS
polyreactivity (PSR sort gate): high polyreactivity

QVQLVESGGGLVQAGGSLRLSCAASGFIFGRYAMGWYRQAPGKERELVARITGIGTRTYYADSVKGRFTISRDNAKNTVYLQMNSLKPEDTAVYYCAVRPFYWGQGTQVTVSS
polyreactivity (PSR sort gate): high polyreactivity

QVQLVESGGGLVQAGGSLRLSCAASGSIFGDNAMGWYRQAPGKERELVASITWSGGSTFYADSVKGRFTISRDNAKNTVYLQMNSLKPEDTAVYYCNADYAESPYFYLLLDYWGQGTQVTVSS
polyreactivity (PSR sort gate): low polyreactivity

QVQVVESGGGLVQAGGSLRLSCAASGRIFNYYAMGWYRQAPRKERELVAVISRTGVRTHYADSVKGRFTISRDNAKNTVYLQMNCLKPEDTAVYYCNADSYVFRYDYWGQGTQVTVSS
polyreactivity (PSR sort gate): high polyreactivity

QVQLVESGGGLVQAGGSLRLSCAASGRNFAWYAMGWYRQAPGKEREFVAAITYRAARTYYADSVKGRFTISRDNAKNTVYLQMNSLKPEDTAVYYCNAVGFDQPRYYYWGQGTQVTVSS
polyreactivity (PSR sort gate): high polyreactivity

QVQLVESGGGLVQAGGSLRLSCAASGSTLSRYAMGWYRQAPGKERELVAAISRRGGSTFYADSVKGRFTISRDNAKNTVYLQRNSLKPEDTAVYYCAALSNHGYYIRMDYWGQGTQVTVSS
polyreactivity (PSR sort gate): high polyreactivity

QVQLVESGGGLFQAGGSLRISFAASGRIFGVNAMGWYRQAPGTQSELVAAISAGGGNTYYADSVKGRFTISRDNAKNTVYLQMNRLKPEDTAVYFCNVQRSLRMDFWGQGTQVTVSS
polyreactivity (PSR sort gate): high polyreactivity

QVQLVESGGGLVQAGGSLRLSCAASGFTIDAYAMGWYRQAPGKERELVAAISDGGNTYYADSVKGRFTISRDNAKNTVYLQMNSLKPEDTAVYYCNVDWYSYWYYTYEKSSEWAMEYWGQGTQVTVSS
polyreactivity (PSR sort gate): low polyreactivity

QVKILESGGGLVQAVCSLRLSCASGSTYLYAMGRYRQAPVKEREMVATISSTGSTYYADSVKGRFTISRDNAKNTVYLQMNSLKPEDTAVYYCAADVCNNGWIYGSYDEYDYWGQGTQVTVSS
polyreactivity (PSR sort gate): high polyreactivity

QVQLVESGGGLVQAGGSLRLSCAASGSILKSNAMGGSRQAPGKARELVAANSSSGDSTYYADSVKGRFTISRDNAKNTVYLQMHSLKPADTAVYSCAARLRGRTRTGYYWGQGTQVTVSS
polyreactivity (PSR sort gate): high polyreactivity

QVQLVESGGGLVQAGGSLRLSCAASGIIFGPYAMGWYRQAPGKEWELVAAITWSGGGTYYADSVKGRFTISRDNAKNTVYLQMNSLKPEDTAVYYCAKYFPAGYYYWGQGTQVTVSS
polyreactivity (PSR sort gate): low polyreactivity

QVQLVESGGGLVQAGGSLRLSCAASGSIFTTYTMASYRQAPGKERELVAAISSSGVRTYYADSVKGRFTISRDNAKNTVYLQMNSLKPEDTAVYYCAARVGKYAEHRYNYWGQGTQVTVSS
polyreactivity (PSR sort gate): high polyreactivity

QVQLVESGGGLVQAGGSLRLSCAASGFTFHNYAMGLYRQSPGKEREFVAAITRNTASTYYADSVKGRFTISRDNAKITVYLQLNSLKPEDTAVYYCAATDKKHRNAYDSWGQVTQVTVSS
polyreactivity (PSR sort gate): low polyreactivity

QVQLVESGGGLVQAGGILRLSCAASGSTFGYNAMGWYRQAPGKERELVAAIRFSGGSTFYADSVKGRFTISRDNAKNTVYLQMNSLKPEDTAVYNCAAGSAYYSQRYFAYGYDSWGQGTQVTVSS
polyreactivity (PSR sort gate): low polyreactivity

QVQLVESGGGLVQAGGSLRLSCAASGFIFRSNTMGWYRQAPGKERELVAAITWSGGNTYYADSVKGRFTISRDNAKNTVYLQMNSLKPEDTAVYYCATVTRLYRHGYWGQGTQVTVSS
polyreactivity (PSR sort gate): high polyreactivity

QVQLVESGGGLVQAGGSLRLSCAASGRTFPRYAMGWYRQARGKEREMVAAISGTGGSTYYADSVKGRFTISRDNAKNTFYLQMNSLKPEDTAVYYCAAAFRDGFTRRYGYWGQGTQVTVSS
polyreactivity (PSR sort gate): high polyreactivity

QVQLVESGGGLVQAGGSLRLSCAASGFTFSTYAMGWYRQAPGKERELVAAISFSGGSTYYADSVKGRFTISRDNAMNSVYLQMNRLKPEDTAVYYCARAYTKYFEIYFIYALLYGHWGQGTQVTVSS
polyreactivity (PSR sort gate): low polyreactivity

QVQLVESGGGLVQAGGSLRLSCAASGRIFYRYAMGWYRQAPGKERELVATMSWSGGSTYYADSVKGRFTISRDNAKNTVYVQMNSLKPEDTAVYYCNAAYGYVSRVYYLIEHDYWGQGTQVTVSS
polyreactivity (PSR sort gate): high polyreactivity

QVQLVESGGGLVQAGGSLRLSCSASGSIFDVFAMGWYRQAPGKERELVAGISRSGGSTYYADSVKGRFTISRDNAKNTVYLQMNSLKPEDTAVYYCAARYTYYRGRYDYWGQGTQVTVSS
polyreactivity (PSR sort gate): low polyreactivity

QVQLVESGGGLVQAGGSLRLSCAASGFTFSRNAMGWYRQAPGKERELDAAITSSGGSTYYADSVKGRFTISRDNAKNTVYLQMNSLKPEDTAVYYCNVVPIWRKYLSQIYGYWGQGTQVTVSS
polyreactivity (PSR sort gate): high polyreactivity

QVQLVESGGGLVQAGGRLRLSCAASGRTLFYYARGWYRQEPGKEREFVPAITWSGVSTSYADSVKGRFTISRDNAKNTVYLQLNSLKPEDTAVYYCAARGYRPRLGKWLDYNYWGQGTQVTVSS
polyreactivity (PSR sort gate): high polyreactivity

QVQLVESGGGLVQAGGSLRLSCAASGSTVGSYAMGWYRQAPGKERELVAAITLRTDSTYYADSVKGRFTISRDNAKNTVYLQMNSLKPEETAVYYCARRYRYGYDYWGQGTQVTVSS
polyreactivity (PSR sort gate): low polyreactivity

QVQLVESGGGLVQAGGSLRLSCAASGSTFVYYAMGWYSQAPGKERELVAAITRSGGRTYYADSVKGRFTNSRDNAKNRVYLQMNSLKPEDTAVYYCAADDYTGYGYWGQGTQVTVSS
polyreactivity (PSR sort gate): high polyreactivity

QVQLVESGGGLVQAGGSLRLSCAASGFTFTYYAMGSYRQAPGKERELVAAITSRGGTTYYADSVKGRFTISRDNAKNTVYLQMNSLKPEDTAVYYCNARHSYWTGRRVTDDYDYWGQGTQVTVSS
polyreactivity (PSR sort gate): high polyreactivity

QVQLVESGGGLVQAGGSLRLSCAASGRIFTGNVMGWYRQAPGKERELVAAISYGGGSTNYADSVKGRFTISRDNAKNTVYLQMNSLKPEDTAVYYCAACIKRYLSYYTRYGYWGQGTQVTVSS
polyreactivity (PSR sort gate): high polyreactivity

QVQLVESGGGLVQAGGSLRLSCAASGRIFGYNAMGWYRQATGKERELVAGITRNDGSTYYADSVKGRFTISRDNAKNTVYLLMNSLKPEDTAVYYCYRYLHLAGSWGQGTQVTVSS
polyreactivity (PSR sort gate): low polyreactivity

QVQLVESGGGLVQAGGRLRLSCAASGFTLDRYAMGWYRQAPGKERELVAAITQSGVSTYYADSVKGLFTISRDNAKNTVYLQKNSLKPEETAVYYCNALLRRTYYRYTWGYGYWGQGTQVTVSS
polyreactivity (PSR sort gate): high polyreactivity
